Data published in paper PMC3178889 (Nature neuroscience, 2011).
“Also recorded” adds a separate entry of the source.

tested on: GST-UNC119; assay: GST-UNC119 pulldown of proteins from retina lysates or HEK cells; format: binding, bovine; conditions: bovine or mouse retina lysate; Coomassie/LC-MS/MS or immunoblot

Molecule	interaction with GST-UNC119 in pulldown from retina lysate
recoverin: Ca^2+-binding protein recoverin (protein) MGNSKSGALSKEILEELQLNTKFTEEELSAWYQSFLKECPSGRITRQEFESIYSKFFPDSDPKAYAQHVFRSFDANSDGTLDFKEYVIALHMTTAGKPTQKLEWAFSLYDVDGNGTISKNEVLEIVMAIFKMIKPEDVKLLPDDENTPEKRAEKIWAFFGKKEDDKLTEEEFIEGTLANKEILRLIQFEPQKVKERIKEKKQ	failed to interact
GCAP1: N-myristoylated GCAP1, Ca^2+-binding protein (protein, N-myristoylated) MGNIMEGKSVEELSSTECHQWYKKFMTECPSGQLTLYEFRQFFGLKNLSPSASQYVEQMFETFDFNKDGYIDFMEYVAALSLVLKGKVEQKLRWYFKLYDVDGNGCIDRDELLTIIRAIRTINPWSDSSMSAEEFTDTVFAKIDINGDGELSLEEFMEGVQKDQMLLDTLTRSLDLTGIVRRLQNGEHEEAGTGDLAAEAAG	does not interact with GST-UNC119; also recorded: failed to interact
farnesylated Tγ: farnesylated transducin γ-subunit (protein, farnesylated) MPVINIEDLTEKDKLKMEVDQLKKEVTLERMMVSKCCEEVRDYIEERSGEDPLVKGIPEDKNPFKELKGGCVIS	not with farnesylated Tγ
cone Tα: cone transducin α-subunit (protein) MGSGASAEDKELAKRSKELEKKLQEDADKEAKTVKLLLLGAGESGKSTIVKQMKIIHQDGYSPEECLEYKAIIYGNVLQSILAIIRAMPTLGIDYAEVSCVDNGRQLNNLADSIEEGTMPPELVEVIRKLWKDGGVQACFDRAAEYQLNDSASYYLNQLDRITAPDYLPNEQDVLRSRVKTTGIIETKFSVKDLNFRMFDVGGQRSERKKWIHCFEGVTCIIFCAALSAYDMVLVEDDEVNRMHESLHLFNSICNHKFFAATSIVLFLNKKDLFEEKIKKVHLSICFPEYDGNNSYEDAGNYIKSQFLDLNMRKDVKEIYSHMTCATDTQNVKFVFDAVTDIIIKENLKDCGLF	Pulldown of rod and cone Tα
